Experimental data from PMC9089689 (ACS Omega, 2022).
Residue numbers refer to the chain shown, from its start. Numbers in names are those of the source.

Legend:
[1] = biological target: T1, Hup-WT (histone-like DNA binding protein HU) (Helicobacter pylori, UniProt O25506 1-94); test: Tyr fluorescence quenching
T1 sequence: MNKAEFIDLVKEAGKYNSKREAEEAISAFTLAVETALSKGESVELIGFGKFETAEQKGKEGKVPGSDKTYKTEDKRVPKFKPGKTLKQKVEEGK

[2] = biological target: the molecule itself; test: NMR 1H-15N HSQC
[3] = biological target: the molecule itself; test: SEC

Binder: TTTTTTTTTTCGAAGAAAAAAAAAA (structured_DNA) [hp-DNA (25-base A/T-rich hairpin)]
- Kd [1]: 500 ± 50 nM

B1: Hup-P64A protein (natural protein, Helicobacter pylori, UniProt O25506 1-94, looked up)
chain: T1 sequence with P64A
- intensity ratio [dimer:monomer] [2]: ~1.5
- stoichiometry N [3]: 2

B2: Helicobacter pylori histone-like DNA binding protein (Hup), wild type (natural protein, UniProt O25506 1-94, looked up)
chain: T1 sequence
- stoichiometry N [3]: 2
